These results are taken from a protein production outcome set (Wang et al. 2014).

The series is described as follows: label from the status in PepcDB records.

For the sequence “MHLWWRYHLATIIILFAMILTIYFLVPPLFYIEIIGVIFILFLWYIISPGILLRVIKSKKVENEDVLRKFEYALALVQMKKIKLHEINSSKPNAFVLGNFLSYNVIVTRGLLESLNDRELISVLLHELHHIKNRDIEIQLIYVLIVNTFYIYIANYNPLLGLSELVIGVVLLFPVHRLLEKNADIKACRTTNWIPLNLANALVKIGYLSRFLPHEIIRDYSEVDLTLAKETILRDDKKGFIFSTHPALSERLKYISKFIKTL”, the protein production entry is recorded as “failed”. As to “MHNDFNLLILSGPSGAGKSTLTKYLQEKIPKTHFSLSTTTRKPREGEVDGLHYNFVSEEEFKQGIEKGQFLEWAIVHNHYYGTSKIPVEKALKEGKIVIFDIDVQGHEILKKHYPNACSVFISTKNQEILKERLLLRGTDSKETIEKRLINAYKEMQCLESFDYLIINEDLEKSKEIILSIAKTLVHRLKAFNFEKICKAWKNETL”, the protein production result is reported as “failed”. For “MHPSLKYMRKDRLPHIFCSGCGNGIVLNCFTNALDKLALKNEDYIAISGIGCSSRVPGYLFCDSLHTTHGRPIAFALGTKVIQNDKKVVVFTGDGDLSAIGGNHFIHGCRRNIDITVICINNNIYGMTGGQCSPTTPHEKKATTAPYGNPENPLDLCELAKAAGATYVARWTTANPIQLANSIKKGMDKKGFSFIEVVSQCPTYYGRFNVSRKPSEMMKNLKESAITVRKAESMEKEELLNKIVVGEFLNIEKPEYVEQLKKLQE” the value was “failed”; for “MHQLWTYDPAAGTVEVGAGTTNEGLVDGPGEEAWFAQPSGLAATADRLWLADSETSALRWVDLDGAVHTAVGTGLFDFGHRDGDAEQALLQHPLGVTALPDGSVAVSDTYNHALRRYDPATGEVTTLATDLREPSDAVLVGDDIVVVESARHRLTRLRLPEEAVRVASVAHRTQRAATEVAPGRLQLDVIFQAPAGQKLDTRYGPSTRLLVSSTPPELLLNGEGADPDLSRTLELNPAIPEGVLHVSAMAASCDDDPANEYPACHVHQQDWGVPVRLTEGGADRLPLVLAGMDALEHHHHHH”, “failed”; for “MHQQTLWLFSGIALVLIIATLISETLRWRARERPSAVLDNLVARIRAWWVMAAVVGLAFVFGRAGVIGLFALVSLFALREFITLTPTRRGDYYALLAAFYVVLPWQYGLVWTGWYGLYTLLIPVYAFLVLPILATIGGDTTRYLERTAKVQWGLMICVFCISHVPALLNLDIPGYAGRNLLLIAFLVIVVQSSDVLQYVWGKLAGRHLIAPKLSPSKTVEGFIGGVVSASLLGMALWWITPFAPWHAFGLALVANLMGFFGGLVMSAIKRDRGIKDWGHMIEGHGGVLDRLDSVCFAAPVFFHLIRYGWA”, “failed”. Take “MHRFLSGPLSVEQLTVNIAGLSASLQGKKLVHLSDFHYDGLRLSEEMLAEAIAVSNQVQPDLVLLTGDYVTTTPQPIHQLAKRLQKLQSHAGIYAILGNHDLYQKNSKTEITQALTKAGIQVLWNEIAYPLGEELPIVGIVDYYYREFNPQLLFNQLEPTTPRIVLCHNPDTAAMLQGWRVDLQLSGHTHGGQIVIPGLGAVLPYHKKIVRRVPIKIRRLFPLFFKDYFIVRHAEWLQGLHRIGKNQLYVNRGLGTYLPGRLFCPPELTVITLEAE”: the protein production result is listed as “failed”.

“MHRLRNLREDVSDGSLGHGGGGLMYDVVVVGAGPAGSMAAKTAAEQGLKVLLVEKRQEIGTPVRCAEGISRESIEKFFEVDKKWIAAEVTGAKIYAPNKTEIVMSEEMAGNEVGYVLERKIFDRHVARLAAKAGAEVYVKTAMVDFERKDGKVKVKLRRLGEDWEVETKILIGADGVESKIGRKAGIIKTLKLNEVESCAQYLMTGLDIDESYTYFYLGRELAPGGYAWIFPKGNGSANVGIGVLPKMAERTAKEYLDAFIEKEGIEGKIVEFVAGAVPVYGEIETAVADNIMLAGDAAYHADPITGGGIANALSAGYYAGKVAAEAVQKNDFSADFLRRYDELWKNDFGKKLRRNKKLQLKFIDMDDALLNKLAGAIAGKNLREMSVAAIVKELLKAHPKLLWDLKDLFLEHHHHHH”: the protein production entry is given as “not failed”. The value for “MHRSTFIRTSGTSSRTLTARYRSQYTGLLVARVLFSTSTTRAQGGNPRSPLQIFRDTFKKEWEKSQELQENIKTLQDASGKLGESEAYKKAREAYLKAQRGSTIVGKTLKKTGETMEHIATKAWESELGKNTRKAAAATAKKLDESFEPVRQTKIYKEVSEVIDDGESSRYGGFITKEQRRLKRERDLASGKRHRAVKSNEDAGTAVVATNIESKESFGKKVEDFKEKTVVGRSIQSLKNKLWDESENPLIVVMRKITNKVGGFFAETESSRVYSQFKLMDPTFSNESFTRHLREYIVPEILEAYVKGDVKVLKKWFSEAPFNVYAAQQKIFKEQDVYADGRILDIRGVEIVSAKLLAPQDIPVLVVGCRAQEINLYRKKKTGEIAAGDEANILMSSYAMVFTRDPEQIDDDETEGWKILEFVRGGSRQFT” was “failed”; that for “MHRVGSAGSNGGSVRTRKEKKLTYVLNDANDTKHCAGINCLDVLKSSVSNDQSYLFTGSRDGTLKRWAFDEDATFCSATFESHVDWVNDAALAGESTLVSCSSDTTVKTWDGLSDGVCTRTLRQHSDYVTCLAVAAKNNNVVASGGLGGEVFIWDIEAALSPVTKPNDANEDSSSNGANGPVTSLRTVGSSNNISVQSSPSHGYTPTIAKGHKESVYALAMNDTGTMLVSGGTEKVLRVWDPRTGSKSMKLRGHTDNVRVLLLDSTGRFCLSGSSDSMIRLWDLGQQRCLHTYAVHTDSVWALACNPSFSHVYSGGRDQCLYLTDLATRESVLLCTKEHPIQQLALQDNSIWVATTDSSVERWPAEVQSPKTVFQRGGSFLAGNLSFNRARVSLEGLNPAPAYKEPSITVPGTHPIVQHEILNNKRQILTKDAAGSVKLWDITRGVVVEDYGKISFEEKKEELFEMVSIPSWFTVDTRLGCLSVHLETPQCFSAEMYSADLKVSGRPEDDKINLARETLKGLLGHWLAKKKHKPKPQVLASGDTLSVKDTKKNLSASKTEESSAASDPVYPPFEFSSVSPPSIITEGSQGGPWRKKITEFTGTEDEKDFPLWCLDAVLNNRLPPRENTKLSFFLHPCEGSSVQVVTLGKLSAPRILRVHKVTNYVVEKMVLDNPLDSLAIDAASVSGGQPQPLFSGNGLLQSGLKPWQKLRPSIEILCNSQVLSPDMSLATVRAYVWKKPEDLILNYRVAIAR” was “failed”; that for “MHSATIIIGIVCGWIFILTTVQFLYLLIIKRDLQPTGWCSFMEKDYLGISSTVLVSLLFGLALVLVNSWFNQPTVEEVVPRSTYLMVMIALFFIDTVAFIFMQLYFIYDRRQFSNCILSLAFLSCLIYFIKTVIIIQQIIEGRLTSSVVQNDIAIYYLFRQMSLCILIFLALVNKVSENTKQRNLFSKKMTLCISLFFVVGGPIVAHILSSHYESYNLHIAELTNENDQVVWKASYVTIMIFMWLTLLSVNLYFNGLRCDIWNGVTVIAFCAVLYNVSLLFMSRYSVSIWYISRTIEVVSKLTVMVIFMCHIFSALRVTKDIAHRDSLTNIFNRNYFFNELTVQSASAKKTPYCVMIMDIDHFKKVNDTWGHPVGDQVIKTVVSIIGKSIRPDDLFARVGGEEFGVLLTDIDTERAKALAERIRENVERLTGDNPEYAIPQKVTISIGAVVTQKNELNPKEIYQLADNALYEAKETGRNKVVVKEAEILINRKDDE” was “failed”. For “MHSDSGSDSGSDSGSGSPMVSSIHPSEPIQPMEHVLEEADARLLTEVGFLAAAVSDLTRADAIFNALQRVRPGRTHPCIGLAVARMNAGLPDEAAEILANFQPAQPEDRSELDAWCGFALLLAGRSDEARRMLQRAIDAGGEAARLAQVVLDSGPAMMRPAPLQSEPLPGAPG” the value was “failed”; for “MHSEHGRQNVKVELKGVHRVRRKLASGETAVYHYAWRGGPRIDAAPGSAEFVAAYNAAHAARDRPVHHDGTLQALITAYQKTPAFTDLAEATRKGYIRHIRQIEADFGDMPVQALADPRVRGEFLDWRDRLAQKSKRSADYAFSVLARILSWAHDRRKIPVNPCEKPGRLYTGSRADSIWTEAQIAAFLAVAPRPVRLPFLLAIWTGQRQADILQLTWTAYDGQAIRLRQSKTGRHMLIPVAQPLREAMEEAKARRRTLTICETSRGQPWTSDGFKTSFGKAQASAGIEGVTFHDLRGTAVTFLALAGCSVPEIAALTGHSLKDAEGILSKHYLGRDRRLGESAVAKLEKHGVGTPTVKRAVKRRGPEGGDSV”, “failed”. The value for “MHSEMTVPGFETRLAKVQDVWRDNRCLKSSSIGQYLYWIHRFHHYCIAEALDADEQLTQAGVSLFAQWYARQRRVDAECACQGAQSALRAWALGLSTLGVEIPPWQCDTDRTSESEPRLQDFAEHLRQHRGNPEATIKKKLAHIRCFLAFIAARHRPLRHLKLTDIDAFLVDCSQRYARTTTADIGSSLRGYVRFLLVTGQVTADLAPSIVTPIVRHYEQPLRALPWDDVRHILAAIDRSSPIGLRDYALLLLMSTYGLGAGEVIRLTLDDIDWQAATLRVVRPKTGVAFVLPLLPALAQALADYLKHGRPRRAPSRHVFQSMRAPHYPLSESSAIRHILVGHARKAGVTAAYLGSHVLRHTHACRQVEQEISPKVLSDILGHRSPESLSAYVRIATERLRQLPLPVPE” was “failed”; that for “MHSGLDNSAELRVSDFDPITLAGGTRTEVLPGAIQPHAALLALAPADLTIVHAAGATASLLGAAAELLPGTAASTAFSSDQIARLQALATAERWIERPQHAFTLNAPDATPIDVIVHHASGLLVVELDPRREPAPENSLALVQSMIRRARPAPNLQGFCDAMAAELRSVTGFDRVMVYRFARDGSADVIAEARGPETSPFLGLRDPQPDISNQPGSISRIRVQPDVHAPAAPLWPAHSPRNGLALDLSFSATRSASPEHRLYLAQLGVAASLSLSLVVEGELWGLIVCHHATPRFLPYRMREACALFAEMASLQLETRLAADQLAARLRSTRIHEELVTRMSQESDLAEGLIRFYPNLLDFIPAAGVGLWIDGQFTGIGATPGPAQVAAMMGWLHGVPHDGVYHTDCLALAYPPAKAFAGCASGLLALSLSNTPHNYVLWFRPEVVRVVTWAGMPNKPVGVDAGAPRTPKGCASSWQESVRLHGEPWLDTDVDAAHRLRESLLDVVLRRIDGIARERRSAQLLQEQLMRQVELGLSRSKDVAKTLQEEKRRRVLVEADLSKVLRRTVEDQEAERLRIARELHDTLGQSLTLLQLGFDKLGQAAGDNPELQQRIAEMKSLTADVGRQANRLAWEIRPTALDDLGIQTAIQNLLDSWSEKSSIEFDLHMTLGSRRLPSPVETTLYRVLQEALTNVVRHASARHVSVILQLGDDQVTMIVEDDGCGFVTAGRKPPSGRLGLLGIRERLSLVGGSLEIESAPGKGTALYARIPL” was “failed”; that for “MHSQASNPSATPEPETPNAAGGKRSVFAVILGNAVEFFDFGVYATFAVMIGHTFFPSDSAFVSLMLSVTAFGVGFIVRPLGAVLIGAYADRVGRKPAMLLTLVMMAVGTGSIAILPSYESIGIAAPILLVLTRLIQGLAWGGEAGPATTYILEAAPAHKRGTYACWQVVAQGVAAMAAGTVGYTLTQVLSPEDLNSWGWRVPFVFGLLVLPIGIYIRRNLAETFHGQGETASTGSLVRQVFGEHRRALVLGLLILSGSTITQYFINYMTTFALTELKLPTSISMLSTLVAGAAMAVCAIAGGMLCDRFGRRTILMAPRVVLLLVLFPALQLMTEHPSPTTFLLTLAVLSGLHGMSGAALIVLLVESFPKAVRSTGFSIVYAFGVAAFGGTAQIIITWLIGTTGNPMSPVGYLLVANLVCLTAAWFAKETRPQAPGRSNPGQRLAEARAR” was “failed”. In the case of “MHSSSRASFTTRGDIRRQVEGFSASGERNKDTVVDLSTFFAERGYSNNQAPTKYWEEKLVTIGNVVVPKWVPVKERNSSNKQKEGEDEVFIGFEAIYYPEQPPERQPITLYQEENKVEEEEQSRE”, the protein production entry is listed as “not failed”.
